Test results taken from IntAct's records for PubMed 11956294.

B1: Inducible T-cell costimulator (Homo sapiens), Q9Y6W8 (parent)
chain: MKSGLWYFFLFCLRIKVLTGEINGSANYEMFIFHNGGVQILCKYPDIVQQFKMQLLKGGQILCDLTKTKGSGNTVSIKSLKFCHSQLSNNSVSFFLYNLDHSHANYYFCNLSIFDPPPFKVTLTGGYLHIYESQLCCQLKFWLPIGCAAFVVVCILGCILICWLTKKKYSSSVHDPNGEYMFMRAVNTAKKSRLTDVTL
partner: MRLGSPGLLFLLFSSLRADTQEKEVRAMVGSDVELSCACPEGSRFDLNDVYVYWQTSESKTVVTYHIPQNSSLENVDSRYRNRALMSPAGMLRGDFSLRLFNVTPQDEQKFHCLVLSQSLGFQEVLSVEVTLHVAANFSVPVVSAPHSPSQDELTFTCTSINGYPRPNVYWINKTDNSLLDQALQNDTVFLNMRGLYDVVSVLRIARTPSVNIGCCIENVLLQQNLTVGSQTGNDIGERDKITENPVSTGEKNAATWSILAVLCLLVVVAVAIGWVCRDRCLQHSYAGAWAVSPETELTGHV

Variants of: B1
Conditions: with icosl_human ICOSLG

Variant	effect of a mutation on the interaction
D64S	decreasing interaction strength
K52S	increasing interaction strength
D115S	disrupting interaction strength
Q49S	decreasing interaction strength
F51S	disrupting interaction strength

Other lines, results leading:

effect of a mutation on the interaction	Variant
disrupting interaction strength	F119S
disrupting interaction strength	F114S
disrupting interaction strength	K69S
increasing interaction strength	S76E
decreasing interaction strength	Q50S
disrupting interaction strength	P117S
disrupting interaction strength	K67S
